Reference: patent US20240117030A1 (Pfizer, published 2024)
Where a chain is given by its changes, count along the chain named.

Key:
[1] = molecular target: T1, recombinant human TSLP (glycosylated long form) (human, UniProt Q969D9 29-159); experiment: cell-based or functional assay
[2] = molecular target: T1, recombinant human TSLP (glycosylated …); experiment: cell-based or functional assay; remark: listed apart in the source
[3] = molecular target: T1, recombinant human TSLP (glycosylated …); experiment: cell-based or functional assay; remark: listed apart in the source
[4] = molecular target: T1, recombinant human TSLP (glycosylated …); experiment: competition ELISA on coated TSLP; competitor biotinylated TSLP-0001 (69 pM)
human TSLP short form = molecular target: T2, human TSLP short form (human, UniProt Q969D9-2 1-63, limits assumed); experiment: SPR (Biacore 8K, 37 C), antibody captured on anti-Fab antibody on a CM5 chip, 300 nM short form TSLP injected (concentration from Example 79)
T2 construct: also called sfTSLP; TSLPsf Avi V5 His 10 Biotin

[5] = molecular target: T3, recombinant human IL-33 (R&D Systems 3625-IL) (human, UniProt O95760 112-270, limits assumed); experiment: cell-based or functional assay
T3 sequence (looked up): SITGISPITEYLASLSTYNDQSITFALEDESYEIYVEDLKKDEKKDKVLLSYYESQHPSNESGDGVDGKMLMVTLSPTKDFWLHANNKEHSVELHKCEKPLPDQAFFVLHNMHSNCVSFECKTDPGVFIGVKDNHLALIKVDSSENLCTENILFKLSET

[6] = molecular target: T4, cynomolgus monkey IL-33 (Pfizer) (cynomolgus monkey, UniProt A0A2K5W3I1 112-269); experiment: cell-based or functional assay
T4 sequence: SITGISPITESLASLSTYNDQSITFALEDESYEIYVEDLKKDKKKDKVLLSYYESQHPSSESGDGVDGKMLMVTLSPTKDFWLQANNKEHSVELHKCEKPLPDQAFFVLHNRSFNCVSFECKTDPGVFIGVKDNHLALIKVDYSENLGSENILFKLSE

[7] = molecular target: T3, recombinant human IL-33 (R&D Systems …); experiment: cell-based or functional assay; remark: listed apart in the source
human IL-4R alpha [8] = molecular target: T5, human IL-4R alpha (human, UniProt P24394 26-825); experiment: cell-based or functional assay
human IL-4R alpha [9] = molecular target: T5, human IL-4R alpha; experiment: cell-based or functional assay; remark: listed apart in the source

B1: TSLP-0100 (antibody, human IgG1, V domains shown)
VH: QMQLVESGGGVVQPGRSLRLSCAASGFTFRTYGMHWVRQAPGKGLEWVAVIWYDGSNKHYADSVKGRFTISRDNSKNTLYLQMNSLRAEDTAVYYCARAPQWELVHEAFDIWGQGTMVTVSS
VL: SYVLTQPPSVSVAPGQTARITCGGNNLGSKSVHWYQQKPGQAPVLVVYDDSDRPSWIPERFSGSNSGNTATLTISRGEAGDEADYYCQVWDSSSDHVVFGGGTKLTVLG
notes: also called IL413TSLP-0100
With B1 the “a-TSLP bioassay (IC50, pM)” value [1] was 24.6 pM, the “a-TSLP TARC bioassay (fold change to TSLP-0001)” value [2] was 0.9 fold and the “anti-hTSLP TARC bioactivity (fold change to TSLP-0001)” value [3] was 0.9 fold. For the same binder, the IC50 [4] was 0.87 nM.

B2: TSLP-0875 (antibody, human IgG1, lambda, V domains shown)
VH: B1 VH with E103Y
VL: B1 VL with S51K, S93K
B2: no binding (tested: 300 nM) (human TSLP short form).

B3: IL13433-1258 (antibody)
heavy: EVQLVESGGGLVQPGGSLRLSCAASGFTFSSYWMYWVRQAPGKGLEWVAAITPNAGEDYYPESVKGRFTISRDNAKNSLYLQMNSLRAEDTAVYYCARGQYYYTKYSLGYWGQGTLVTVSSASTKGPSVFPLAPSSKSTSGGTAALGCLVKDYFPEPVTVSWNSGALTSGVHTFPAVLQSSGLYSLSSVVTVPSSSLGTQTYICNVNHKPSNTKVDKKVEPKSCRKTHTCPPCPAPEAAGAPSVFLFPPKPKDTLMISRTPEVTCVVVDVSHEDPEVKFNWYVDGVEVHNAKTKPREEQYNSTYRVVSVLTVLHQDWLNGKEYKCKVSNKALPAPIEKTISKAKGQPREPQVYTLPPSREEMTKNQVSLTCLVKGFYPSDIAVEWESNGQPENNYKTTPPVLDSDGSFFLYSRLTVDKSRWQQGNVFSCSVLHEALHSHYTQKSLSLSPGK
light 1: DIQMTQSPSSLSASVGDRVTITCRASQPIHNHLDWYQQKPGKAPKLLIYFGKNLQEGVPSRFSGSGSGTDFTLTISSLQPEDFATYYCFQYKKGWSFGGGTKVEIKRTVAAPSVFIFPPSDEQLKSGTASVVCLLNNFYPREAKVQWKVDNALQSGNSQESVTEQDSKDSTYSLSSTLTLSKADYEKHKVYACEVTHQGLSSPVTKSFNRGEC
chain 1: DIQMTQSPSSLSASVGDRVTITCKASESVDHFGWSLVHWYQQKPGKAPKLLIYRASNLESGVPSRFSGSGSGTDFTLTISSLQPEDFATYYCQQSNEDPWTFGGGTKVEIKRTVAAPSVFIFPPSDEQLKSGTASVVCLLNNFYPREAKVQWKVDNALQSGNSQESVTEQDSKDSTYSLSSTLTLSKADYEKHKVYACEVTHQGLSSPVTKSFNRGECGGGGSEVTLRESGPALVKPTQTLTLTCTFSGFSLSNFGEGLSWIRQPPGKGLEWLAHIYWDDDKRYNPSLKSRLTISKDTSRNQVVLTMTNMDPVDTATYYCARRETVFYWYFDVWGQGTTVTVSSASTKGPSVFPLAPSSKSTSGGTAALGCLVKDYFPEPVTVSWNSGALTSGVHTFPAVLQSSGLYSLSSVVTVPSSSLGTQTYICNVNHKPSNTKVDKKVEPKSCEKTHTCPPCPAPEAAGAPSVFLFPPKPKDTLMISRTPEVTCVVVDVSHEDPEVKFNWYVDGVEVHNAKTKPREEQYNSTYRVVSVLTVLHQDWLNGKEYKCKVSNKALPAPIEKTISKAKGQPREPQVYTLPPSREEMTKNQVSLTCEVKGFYPSDIAVEWESNGQPENNYKTTPPVLDSDGSFFLYSKLTVDKSRWQQGNVFSCSVLHEALHSHYTQKSLSLSPGK
light 2: DIQMTQSPSSLSASVGDRVTITCRASQSVDEEGDSYMNWYQQKPGKAPKLLIYAASNLESGVPSRFSGSGSGTDFTLTISSLQPEDFATYYCQQSNKDPPTFGGGTKVEIKRTVAAPSVFIFPPSDEQLKSGTASVVCLLNNFYPREAKVQWKVDNALQSGNSQESVTEQDSKDSTYSLSSTLTLSKADYEKHKVYACEVTHQGLSSPVTKSFNRGEC
chain 2: EVQLVESGGGLVQPGGSLRLSCAASGFTFSSYAMSWVRQAPGKGLEWVASISSGDTTYYPDSVKGRFTISRDNAKNSLYLQMNSLRAEDTAVYYCARNEGYYFGLTLWGQGTLVTVSSASTKGPSVFPLAPSSKSTSGGTAALGCLVKDYFPEPVTVSWNSGALTSGVHTFPAVLQSSGLYSLSSVVTVPSSSLGTQTYICNVNHKPSNTKVDKKVEPKSC
For B3, the “IC50, IL-33-induced SEAP activity in HEK-Blue IL-33 SEAP cells (median)” value [5] was 0.0134 nM, the “IC50, IL-33-induced SEAP activity in HEK-Blue IL-33 SEAP cells (median)” value [6] was 0.274 nM and the “IC50 (pM) HEK-Blue IL-33 SEAP (mean)” value [7] was 13.4 pM.

B4: Dupilumab (antibody, V domains shown)
VH: EVQLVESGGGLEQPGGSLRLSCAGSGFTFRDYAMTWVRQAPGKGLEWVSSISGSGGNTYYADSVKGRFTISRDNSKNTLYLQMNSLRAEDTAVYYCAKDRLSITIRPRYYGLDVWGQGTTVTVSS
VL: DIVMTQSPLSLPVTPGEPASISCRSSQSLLYSIGYNYLDWYLQKSGQSPQLLIYLGSNRASGVPDRFSGSGSGTDFTLKISRVEAEDVGFYYCMQALQTPYTFGQGTKLEIKR
With B4 the “IC50 (median), IL-4 induced CD23 expression on human monocytes” value (human IL-4R alpha [8]) was 0.104 nM and the “IC50 (median), IL-13 induced CD23 expression on human monocytes” value (human IL-4R alpha [9]) was 0.0932 nM.
